To fix the notation:
B1: murine anti-hPG MAb13 (antibody, V domains shown)
VH: EVQLVESGGGLVQPGGSLKLSCAASGFIFSSYGMSWVRQSPDRRLELVASINTFGDRTYYPDSVKGRFTISRDNAKNTLYLQMTSLKSEDTAIYYCARGTGTYWGQGTTLTVSS
VL: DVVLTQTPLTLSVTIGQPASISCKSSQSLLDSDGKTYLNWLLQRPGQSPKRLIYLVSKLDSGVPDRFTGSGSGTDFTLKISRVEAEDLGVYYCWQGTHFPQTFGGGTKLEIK
notes: Murine C-terminal anti-hPG monoclonal antibody, immunogen C1; also called hybridoma 2C6C3C7
B2: murine anti-hPG MAb16 (antibody, V domains shown)
VH: QVQLQQSGAELVKPGASVKLSCKASGYTFTSYYMYWVKQRPGQGLEWIGEINPSNGGTNFNEKFKSKATLTVDKSSSTAYMQLSSLTSEDSAVYYCTRGGYYPFDYWGQGTTLTVSS
VL: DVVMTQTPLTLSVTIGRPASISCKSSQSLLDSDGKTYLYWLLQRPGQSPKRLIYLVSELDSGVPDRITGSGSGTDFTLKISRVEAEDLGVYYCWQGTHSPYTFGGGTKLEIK
notes: Murine N-terminal anti-hPG monoclonal antibody, immunogen N2; also called hybridoma 1E9D9B6
B3: murine anti-hPG MAb8 (antibody, V domains shown)
VH: EVQLVESGGGLVKPGGSLKLSCAASGFTFTTYAMSWVRQTPEKRLEWVATISSGGTYTYYPDSVKGRFTISRDNAKNALYLQMSSLRSEDTAMYYCATQGNYSLDFWGQGTSLTVSS
VL: DIVMTQAASSNPVTLGTSASISCRSSKSLRHTKGITFLYWYLQKPGQSPQLLIYQMSNLASGVPDRFSSSGSGTDFTLRISRVEAEDLGVYYCAQNLELPLTFGAGTKLELK
notes: Murine C-terminal anti-hPG monoclonal antibody, immunogen C1; also called hybridoma 1C10D3B9
B4: murine anti-hPG MAb4 (antibody, V domains shown)
VH: QVQLQQSGAELMKPGASVKISCKATGYTFSSSWIEWLKQRPGHGLEWIGEFLPGSGSTDYNEKFKGKATFTADTSSDTAYMLLSSLTSEDSAVYYCATDGNYDWFAYWGQGTLVTVSA
VL: DLVMTQTPLSLPVSLGDQASISCRSSQSLVHSSGVTYLHWYLQKPGQSPKLLIYKVSNRFSGVPDRFSGSGSGTDFTLKISRVEAEDLGVYFCSQSTHVPPTFGSGTKLEIK
notes: Murine N-terminal anti-hPG monoclonal antibody, immunogen N2; also called hybridoma 20D2C3G2
B5: murine anti-hPG MAb3 (antibody, V domains shown)
VH: EVQLQQSGTVLARPGASVKMSCKASGYIFTSYWVHWVKQRPGQGLEWIGGFYPGNSDSRYNQKFKGKATLTAVTSASTAYMDLSSLTNEDSAVYFCTRRDSPQYWGQGTTLTVSS
VL: DVLMTQTPLSLPVSLGDQASISCRSSQSIVHSNGNTYLEWYLQKPGQSPKLLIYKVSNRFSGVPDRFSGSGSGTDFTLKISRLEAEDLGVYYCFQGSHVPFTFGGGTKLEIK
notes: Murine N-terminal anti-hPG monoclonal antibody, immunogen N2; also called hybridoma 6B5B11C10
B6: murine anti-hPG MAb19 (antibody, V domains shown)
VH: DVQLQESGPGLVKPSQSLSLTCTVTGYSITSDYAWNWIRQFPGNKLEWMGYISFSGYTSYNPSLKSRISVTRDTSRNQFFLQLTSVTTEDTATYYCAREVNYGDSYHFDYWGQGTIVTVSS
VL: QLALTQSSSASFSLGASAKLTCTLSSQHRTYTIEWYQQQSLKPPKYVMEVKKDGSHSTGHGIPDRFSGSSSGADRYLSISNIQPEDEAIYICGVGDAIKGQSVFVFGGGTKVTVL
notes: Murine N-terminal anti-hPG monoclonal antibody, immunogen N2; also called hybridoma 1B3B4F11

Several values for one entry are separate records, joined by “and”; a condition that tells them apart may be missing. Equal entries are not always repeated.

For the assay, the target named is T1, mature human progastrin (human, UniProt P01350 22-101).
T1 construct: In the spheroid assays the progastrin is made by the human liver cancer cells themselves; also called hPG; PG
T1 sequence: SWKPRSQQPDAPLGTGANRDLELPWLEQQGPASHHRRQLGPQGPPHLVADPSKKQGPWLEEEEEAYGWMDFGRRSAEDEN
The assay is described as follows: measured KD; method not named at the table (Example 4 describes Proteon SPR, antibody captured by anti-mouse IgG, hPG injected).
For the molecule B1, the Kd (in general, a measure of binding affinity in units of concentration) was 0.6 nM and 0.612 nM.
For the molecule B2, the dissociation constant Kd was 0.2 nM and 0.278 nM.
Turning to B3, the Kd was 0.1 nM and 0.108 nM.
Consider B4, for which binding was characterised by a dissociation constant (Kd) of 3.5 nM.
The value for B5 was 6.4 nM.
In the case of B6, the Kd was 0.7 nM and 0.779 nM.

The values are drawn from patent US20120020961A1 (INSTITUT NATIONAL DE LA SANTE ET DE LA RECHERCHE MEDICALE …, published 2012).
